Reference: publication PMC3499301 (mAbs, 2012)

B1: His-tagged Ang2 prepared in-house (Zyngenia) (ligand)
chain: YNNFRKSMDSIGKKQYQVQHGSCSYTFLLPEMDNCRSSSSPYVSNAVQRDAPLEYDDSVQRLQVLENIMENNTQWLMKLENYIQDNMKKEMVEIQQNAVQNQTAVMIEIGTNLLNQTAEQTRKLTDVEAQVLNQTTRLELQLLEHSLSTNKLEKQILDQTSEINKLQDKNSFLEKKVLAMEDKHIIQLQSIKEEKDQLQVLVSKQNSIIEELEKKIVTATVNNSVLQKQQHDLMETVNNLLTMMSTSNSAKDPTVAKEEQISFRDCAEVFKSGHTTNGIYTLTFPNSTEEIKAYCDMEAGGGGWTIIQRREDGSVDFQRTWKEYKVGFGNPSGEYWLGNEFVSQLTNQQRYVLKIHLKDWEGNEAYSLYEHFYLSSEELNYRIHLKGLTGTAGKISSISQPGNDFSTKDGDNDKCICKCSQMLTGGWWFDACGPSNLNGMYYPQRQNTNKFNGIKWYYWKGSGYSLKATTMMIRPADF
B2: Recombinant human Ang2 (R&D Systems) (ligand)
chain: B1 chain

What was measured:
[1] = target: the molecule itself
[2] = target: soluble human Tie2-Fc (human, UniProt Q02763); test: ELISA
Sequence of soluble human Tie2-Fc (Q02763 23-748): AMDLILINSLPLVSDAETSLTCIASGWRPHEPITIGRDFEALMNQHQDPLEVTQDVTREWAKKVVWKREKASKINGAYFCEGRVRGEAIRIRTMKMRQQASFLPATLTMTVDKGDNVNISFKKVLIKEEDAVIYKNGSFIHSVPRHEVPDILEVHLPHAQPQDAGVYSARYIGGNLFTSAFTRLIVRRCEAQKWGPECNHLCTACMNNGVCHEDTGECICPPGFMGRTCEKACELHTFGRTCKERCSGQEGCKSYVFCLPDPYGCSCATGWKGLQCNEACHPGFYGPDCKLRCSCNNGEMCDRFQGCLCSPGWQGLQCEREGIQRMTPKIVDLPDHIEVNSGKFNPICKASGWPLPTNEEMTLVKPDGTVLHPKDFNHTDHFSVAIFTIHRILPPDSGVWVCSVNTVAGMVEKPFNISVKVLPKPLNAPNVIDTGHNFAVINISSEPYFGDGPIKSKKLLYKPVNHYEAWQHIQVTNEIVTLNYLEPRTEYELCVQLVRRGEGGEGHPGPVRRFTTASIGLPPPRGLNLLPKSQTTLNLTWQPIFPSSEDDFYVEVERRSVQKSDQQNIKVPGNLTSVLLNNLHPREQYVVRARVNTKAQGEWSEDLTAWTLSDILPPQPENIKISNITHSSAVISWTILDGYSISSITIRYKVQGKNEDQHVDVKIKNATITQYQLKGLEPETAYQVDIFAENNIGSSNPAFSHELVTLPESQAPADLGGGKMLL

Row | Binder | stoichiometry N [1] | binding result [2]
1 | B1 | 2 | –
2 | B2 | – | binds
